From PMC5602538, “Assessment of the Drug Interaction Potential of Unconjugated and GalNAc3-Conjugated 2′-MOE-ASOs” (Molecular Therapy. Nucleic Acids, 2017)
{GalNAc3} = trishexylamino-C6 triantennary GalNAc conjugate

What was measured:
CYP2B6 mRNA = CYP2B6 mRNA induction in plated human hepatocytes; conditions: ASO 100 μM, human hepatocytes 72 hr, vs PBS 1% vehicle, mean ± SD of triplicate
Experimental: (§1) Upon receipt, sandwich-cultured cryopreserved human hepatocytes (with Matrigel) plated on collagen-coated 24-well plates were inspected under a microscope for general morphology and viability. Fresh culture medium (OptiCulture Hepatocyte Media) was added to each plate that passed the visual inspection. The plates were then placed in an incubator set to 37°C with 5% carbon dioxide (CO2) for overnight acclimation. […] During this time, cells in parallel wells were also treated with 50.0 μM omeprazole (inducer of CYP1A2), 1,000 μM phenobarbital (inducer of CYP2B6), or 10.0 μM rifampicin (inducer of CYP3A4) in triplicate, respectively.
(§2) After collection of the supernatant for catalytic analysis, the remaining cells were washed and lysed with QIAGEN Buffer RLT from the QIAGEN RNeasy Kit. […]
(§3) The activity of each CYP enzyme was measured by comparing the peak area ratio of the corresponding product to the peak area ratio of the internal standard. The fold induction was calculated by dividing the peak area ratio of each individual well from the treatment group by the mean of the peak area ratios obtained from the vehicle control wells. […] The ΔCƬ was calculated as follows: ΔCƬ = CƬ (CYP) − CƬ (GAPDH). […] The ΔΔCƬ was calculated as follows: ΔΔCƬ = Δ CƬ (Treatment) − Δ CƬ (Vehicle). The fold induction of the target CYP was calculated using the following equation: Fold=2^-ΔΔCT.

CYP3A4 = conditions: ASO 100 μM, human hepatocytes 72 hr, vs PBS 1% vehicle, mean ± SD of triplicate
Experimental: as §1
(§4) The plates were then incubated at 37°C with 5% CO2 for 60 min. […] Aliquots of the supernatants were analyzed by LC-MS/MS for the formation of acetaminophen, hydroxyl-bupropion, or hydroxyl-midazolam as markers for enzyme activity of CYP1A2, CYP2B6, and CYP3A4, respectively.
as §3, with “The fold induction of the target CYP was calculated using the following equation: Fold=2^-ΔΔCT.” left out

CYP2B6 = CYP2B6 enzyme activity induction in plated human hepatocytes; conditions: ASO 100 μM, human hepatocytes 72 hr, vs PBS 1% vehicle, mean ± SD of triplicate
Experimental: as §1, §4
as §3, with “The fold induction of the target CYP was calculated using the following equation: Fold=2^-ΔΔCT.” left out

CYP1A2 = CYP1A2 enzyme activity induction in plated human hepatocytes; conditions: ASO 100 μM, human hepatocytes 72 hr, vs PBS 1% vehicle, mean ± SD of triplicate
Experimental: as §1, §4
as §3, with “The fold induction of the target CYP was calculated using the following equation: Fold=2^-ΔΔCT.” left out

OAT3 = system: T1, OAT3; experiment: OAT3 inhibition study in MDCK cells; assay type: in vitro ADME; conditions: 100 μM ASO, 10 μM p-aminohippurate
T1 construct: expressed in transfected cells; host or cells: MDCK-II
Experimental: A 96-well cell culture plate containing a monolayer of MDCK-II cells grown on a permeable support and a corresponding receiver tray was used. The basolateral compartment of the culture plate and wells were washed with warm HBSS three times, with wells of the culture plate serving as the apical compartment. The wash was aspirated by adding 150 μL of 37°C HBSS to both compartments. […] The pre-incubation buffer from both compartments was aspirated and 150 μL of the following was added to the basal compartment. […] OATP1B1, 2 μM [^3H]-estradiol-17 β-D-glucuronide; and OATP1B3, 2 μM [^3H]-cholecystokinin octapeptide (CCK-8). […] Plates were incubated at 37°C with orbital shaking at 60 rpm for 5 min. Both sides of the permeable support were washed four times with ice-cold PBS and 60 μL of cell extraction solution was added to each well. Plates were agitated for 15 min at 120 rpm, after which a 30-μL sample of the extract was collected. […] Test article concentrations, including control samples, were evaluated by an LC-MS method. Signal to noise for probe substrates was calculated by dividing the uptake of the probe substrate in transporter-expressing cells by the uptake of probe substrate in control cells not expressing the transporter of interest.

CYP1A2 mRNA = CYP1A2 mRNA induction in plated human hepatocytes; conditions: ASO 100 μM, human hepatocytes 72 hr, vs PBS 1% vehicle, mean ± SD of triplicate
Experimental: as §1, §2, §3

## ISIS 681257: 20-mer 2′-MOE gapmer PS/PO mixed backbone ASO conjugated to 5′-trishexylamino GalNAc3, targets Lp(a), sequence TGCTCCGTTGGTGCTTGTTC (5' {GalNAc3}, sugars by position and backbone not given here; 2'-MOE gapmer with mixed PS/PO backbone)
CYP2B6 mRNA
  Fold induction of CYP2B6 mRNA: 1.36 ± 0.347 fold
CYP3A4
  Fold induction of CYP3A4 enzyme activity: 1.67 ± 0.310 fold
CYP2B6
  Fold induction of CYP2B6 enzyme activity: 1.20 ± 0.389 fold
CYP1A2
  Fold induction of CYP1A2 enzyme activity: 1.40 ± 0.116 fold
OAT3
  Enhancement of probe substrate uptake, OAT3: 18.2%
CYP1A2 mRNA
  Fold induction of CYP1A2 mRNA: 1.71 ± 0.0853 fold
